B1: FLAG-GLUT4 (human full length) expressed in HEK293T cells [human] / retinoic acid inducible gene I (RIG-I), endogenous in HEK293T cells [human (endogenous in HEK293T)] (parent complex)
chain 1: MPSGFQQIGSEDGEPPQQRVTGTLVLAVFSAVLGSLQFGYNIGVINAPQKVIEQSYNETWLGRQGPEGPSSIPPGTLTTLWALSVAIFSVGGMISSFLIGIISQWLGRKRAMLVNNVLAVLGGSLMGLANAAASYEMLILGRFLIGAYSGLTSGLVPMYVGEIAPTHLRGALGTLNQLAIVIGILIAQVLGLESLLGTASLWPLLLGLTVLPALLQLVLLPFCPESPRYLYIIQNLEGPARKSLKRLTGWADVSGVLAELKDEKRKLERERPLSLLQLLGSRTHRQPLIIAVVLQLSQQLSGINAVFYYSTSIFETAGVGQPAYATIGAGVVNTVFTLVSVLLVERAGRRTLHLLGLAGMCGCAILMTVALLLLERVPAMSYVSIVAIFGFVAFFEIGPGPIPWFIVAELFSQGPRPAAMAVAGFSNWTSNFIIGMGFQYVAEAMGPYVFLLFAVLLLGFFIFTFLRVPETRGRTFDQISAAFHRTPSLLEQEVKPSTELEYLGPDEND
chain 2: MTTEQRRSLQAFQDYIRKTLDPTYILSYMAPWFREEEVQYIQAEKNNKGPMEAATLFLKFLLELQEEGWFRGFLDALDHAGYSGLYEAIESWDFKKIEKLEEYRLLLKRLQPEFKTRIIPTDIISDLSECLINQECEEILQICSTKGMMAGAEKLVECLLRSDKENWPKTLKLALEKERNKFSELWIVEKGIKDVETEDLEDKMETSDIQIFYQEDPECQNLSENSCPPSEVSDTNLYSPFKPRNYQLELALPAMKGKNTIICAPTGCGKTFVSLLICEHHLKKFPQGQKGKVVFFANQIPVYEQQKSVFSKYFERHGYRVTGISGATAENVPVEQIVENNDIIILTPQILVNNLKKGTIPSLSIFTLMIFDECHNTSKQHPYNMIMFNYLDQKLGGSSGPLPQVIGLTASVGVGDAKNTDEALDYICKLCASLDASVIATVKHNLEELEQVVYKPQKFFRKVESRISDKFKYIIAQLMRDTESLAKRICKDLENLSQIQNREFGTQKYEQWIVTVQKACMVFQMPDKDEESRICKALFLYTSHLRKYNDALIISEHARMKDALDYLKDFFSNVRAAGFDEIEQDLTQRFEEKLQELESVSRDPSNENPKLEDLCFILQEEYHLNPETITILFVKTRALVDALKNWIEGNPKLSFLKPGILTGRGKTNQNTGMTLPAQKCILDAFKASGDHNILIATSVADEGIDIAQCNLVILYEYVGNVIKMIQTRGRGRARGSKCFLLTSNAGVIEKEQINMYKEKMMNDSILRLQTWDEAVFREKILHIQTHEKFIRDSQEKPKPVPDKENKKLLCRKCKALACYTADVRVIEECHYTVLGDAFKECFVSRPHPKPKQFSSFEKRAKIFCARQNCSHDWGIHVKYKTFEIPVIKIESFVVEDIATGVQTLYSKWKDFHFEKIPFDPAEMSK

The variants in this assay derive from B1. Kind of assay: co-IP (IP: FLAG) with immunoblot band densitometry; HEK293T cells; FLAG-GLUT4 plasmids, endogenous RIG-I; Vector, pcDNA3.1-FLAG; read off a plot.
On to chain 1 MPSGFQQIGSEDGEPPQQRVTGTLVLAVFSAVLGSLQFGYNIGVINAPQKVIEQSYNETWLGRQGPEGPSSIPPGTLTTLWALSVAIFSVGGMISSFLIGIISQWLGRKRAMLVNNVLAVLGGSLMGLANAAASYEMLILGRFLIGAYSGLTSGLVPMYVGEIAPTHLAGALGTLNQLAIVIGILIAQVLGLESLLGTASLWPLLLGLTVLPALLQLVLLPFCPESPRYLYIIQNLEGPARKSLKRLTGWADVSGVLAELKDEKRKLERERPLSLLQLLGSRTHRQPLIIAVVLQLSQQLSGINAVFYYSTSIFETAGVGQPAYATIGAGVVNTVFTLVSVLLVERAGRRTLHLLGLAGMCGCAILMTVALLLLERVPAMSYVSIVAIFGFVAFFEIGPGPIPWFIVAELFSQGPRPAAMAVAGFSNWTSNFIIGMGFQYVAEAMGPYVFLLFAVLLLGFFIFTFLRVPETRGRTFDQISAAFHRTPSLLEQEVKPSTELEYLGPDEND [chain 1 R169A], for which the response is ~1.1 band density ratio (RIG-I/GLUT4).
